In IntAct's records for PubMed 34606829:

B1: ALK tyrosine kinase receptor (Homo sapiens), Q9UM73 (parent)
chain: MGAIGLLWLLPLLLSTAAVGSGMGTGQRAGSPAAGPPLQPREPLSYSRLQRKSLAVDFVVPSLFRVYARDLLLPPSSSELKAGRPEARGSLALDCAPLLRLLGPAPGVSWTAGSPAPAEARTLSRVLKGGSVRKLRRAKQLVLELGEEAILEGCVGPPGEAAVGLLQFNLSELFSWWIRQGEGRLRIRLMPEKKASEVGREGRLSAAIRASQPRLLFQIFGTGHSSLESPTNMPSPSPDYFTWNLTWIMKDSFPFLSHRSRYGLECSFDFPCELEYSPPLHDLRNQSWSWRRIPSEEASQMDLLDGPGAERSKEMPRGSFLLLNTSADSKHTILSPWMRSSSEHCTLAVSVHRHLQPSGRYIAQLLPHNEAAREILLMPTPGKHGWTVLQGRIGRPDNPFRVALEYISSGNRSLSAVDFFALKNCSEGTSPGSKMALQSSFTCWNGTVLQLGQACDFHQDCAQGEDESQMCRKLPVGFYCNFEDGFCGWTQGTLSPHTPQWQVRTLKDARFQDHQDHALLLSTTDVPASESATVTSATFPAPIKSSPCELRMSWLIRGVLRGNVSLVLVENKTGKEQGRMVWHVAAYEGLSLWQWMVLPLLDVSDRFWLQMVAWWGQGSRAIVAFDNISISLDCYLTISGEDKILQNTAPKSRNLFERNPNKELKPGENSPRQTPIFDPTVHWLFTTCGASGPHGPTQAQCNNAYQNSNLSVEVGSEGPLKGIQIWKVPATDTYSISGYGAAGGKGGKNTMMRSHGVSVLGIFNLEKDDMLYILVGQQGEDACPSTNQLIQKVCIGENNVIEEEIRVNRSVHEWAGGGGGGGGATYVFKMKDGVPVPLIIAAGGGGRAYGAKTDTFHPERLENNSSVLGLNGNSGAAGGGGGWNDNTSLLWAGKSLQEGATGGHSCPQAMKKWGWETRGGFGGGGGGCSSGGGGGGYIGGNAASNNDPEMDGEDGVSFISPLGILYTPALKVMEGHGEVNIKHYLNCSHCEVDECHMDPESHKVICFCDHGTVLAEDGVSCIVSPTPEPHLPLSLILSVVTSALVAALVLAFSGIMIVYRRKHQELQAMQMELQSPEYKLSKLRTSTIMTDYNPNYCFAGKTSSISDLKEVPRKNITLIRGLGHGAFGEVYEGQVSGMPNDPSPLQVAVKTLPEVCSEQDELDFLMEALIISKFNHQNIVRCIGVSLQSLPRFILLELMAGGDLKSFLRETRPRPSQPSSLAMLDLLHVARDIACGCQYLEENHFIHRDIAARNCLLTCPGPGRVAKIGDFGMARDIYRASYYRKGGCAMLPVKWMPPEAFMEGIFTSKTDTWSFGVLLWEIFSLGYMPYPSKSNQEVLEFVTSGGRMDPPKNCPGPVYRIMTQCWQHQPEDRPNFAIILERIEYCTQDPDVINTALPIEYGPLVEEEEKVPVRPKDPEGVPPLLVSQQAKREEERSPAAPPPLPTTSSGKAAKKPTAAEISVRVPRGPAVEGGHVNMAFSQSNPPSELHKVHGSRNKPTSLWNPTYGSWFTEKPTKKNNPIAKKEPHDRGNLGLEGSCTVPPNVATGRLPGASLLLEPSSLTANMKEVPLFRLRHFPCGNVNYGYQQQGLPLEAATAPGAGHYEDTILKSKNSMNQPGP
partner: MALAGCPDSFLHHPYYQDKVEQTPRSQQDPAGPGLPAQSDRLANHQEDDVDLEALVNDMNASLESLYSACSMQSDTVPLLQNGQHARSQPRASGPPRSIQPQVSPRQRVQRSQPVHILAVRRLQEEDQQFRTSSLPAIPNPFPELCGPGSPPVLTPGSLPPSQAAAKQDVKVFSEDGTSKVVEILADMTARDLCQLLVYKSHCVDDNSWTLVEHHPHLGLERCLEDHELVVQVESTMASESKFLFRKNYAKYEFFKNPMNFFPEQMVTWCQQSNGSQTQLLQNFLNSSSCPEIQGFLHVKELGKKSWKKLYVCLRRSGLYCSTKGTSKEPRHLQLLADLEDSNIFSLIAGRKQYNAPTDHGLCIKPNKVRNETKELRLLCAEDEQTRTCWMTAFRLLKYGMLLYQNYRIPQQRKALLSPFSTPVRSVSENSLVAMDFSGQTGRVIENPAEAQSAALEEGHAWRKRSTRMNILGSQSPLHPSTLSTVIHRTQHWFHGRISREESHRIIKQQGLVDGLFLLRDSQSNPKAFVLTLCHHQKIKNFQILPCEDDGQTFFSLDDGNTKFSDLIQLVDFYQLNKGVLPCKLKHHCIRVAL
B2: ALK tyrosine kinase receptor (Homo sapiens), Q9UM73 (parent)
chain: B1 chain
partner: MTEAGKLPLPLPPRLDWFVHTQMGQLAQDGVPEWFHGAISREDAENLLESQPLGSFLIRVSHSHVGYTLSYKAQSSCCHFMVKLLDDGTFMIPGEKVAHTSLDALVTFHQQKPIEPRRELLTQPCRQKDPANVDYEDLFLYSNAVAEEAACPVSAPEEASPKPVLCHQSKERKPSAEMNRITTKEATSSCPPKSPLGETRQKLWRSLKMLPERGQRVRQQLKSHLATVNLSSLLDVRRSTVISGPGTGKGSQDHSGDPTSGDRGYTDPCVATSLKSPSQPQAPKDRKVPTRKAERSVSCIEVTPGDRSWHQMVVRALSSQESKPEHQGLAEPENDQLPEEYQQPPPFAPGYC
B3: ALK tyrosine kinase receptor (Homo sapiens), Q9UM73 (parent)
chain: B1 chain
partner: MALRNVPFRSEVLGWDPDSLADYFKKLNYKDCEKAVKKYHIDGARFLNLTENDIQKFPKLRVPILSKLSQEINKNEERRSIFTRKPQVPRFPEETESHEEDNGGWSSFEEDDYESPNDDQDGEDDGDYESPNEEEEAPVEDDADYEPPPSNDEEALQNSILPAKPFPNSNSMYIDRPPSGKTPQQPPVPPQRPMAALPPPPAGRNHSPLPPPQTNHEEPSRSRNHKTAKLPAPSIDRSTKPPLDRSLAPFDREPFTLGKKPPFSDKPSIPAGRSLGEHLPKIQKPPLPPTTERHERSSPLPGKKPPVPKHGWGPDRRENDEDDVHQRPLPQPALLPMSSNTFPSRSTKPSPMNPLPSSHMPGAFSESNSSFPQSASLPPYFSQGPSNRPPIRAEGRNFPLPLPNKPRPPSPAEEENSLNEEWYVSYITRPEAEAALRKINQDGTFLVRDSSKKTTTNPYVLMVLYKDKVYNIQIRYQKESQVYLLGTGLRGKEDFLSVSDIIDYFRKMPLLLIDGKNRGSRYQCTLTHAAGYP
B4: ALK tyrosine kinase receptor (Homo sapiens), Q9UM73 (parent)
chain: B1 chain
partner: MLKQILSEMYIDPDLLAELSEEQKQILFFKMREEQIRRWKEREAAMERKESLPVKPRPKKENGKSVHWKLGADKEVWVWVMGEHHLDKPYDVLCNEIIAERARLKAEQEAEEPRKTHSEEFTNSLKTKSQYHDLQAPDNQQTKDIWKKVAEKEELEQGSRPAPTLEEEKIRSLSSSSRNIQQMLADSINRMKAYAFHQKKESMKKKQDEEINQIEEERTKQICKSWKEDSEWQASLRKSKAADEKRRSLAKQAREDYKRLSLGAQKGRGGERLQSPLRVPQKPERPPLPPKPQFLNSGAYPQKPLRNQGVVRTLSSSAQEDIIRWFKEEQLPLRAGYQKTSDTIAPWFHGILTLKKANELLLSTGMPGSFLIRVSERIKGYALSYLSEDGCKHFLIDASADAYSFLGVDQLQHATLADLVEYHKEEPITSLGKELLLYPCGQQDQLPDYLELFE
B5: ALK tyrosine kinase receptor (Homo sapiens), Q9UM73 (parent)
chain: B1 chain
partner: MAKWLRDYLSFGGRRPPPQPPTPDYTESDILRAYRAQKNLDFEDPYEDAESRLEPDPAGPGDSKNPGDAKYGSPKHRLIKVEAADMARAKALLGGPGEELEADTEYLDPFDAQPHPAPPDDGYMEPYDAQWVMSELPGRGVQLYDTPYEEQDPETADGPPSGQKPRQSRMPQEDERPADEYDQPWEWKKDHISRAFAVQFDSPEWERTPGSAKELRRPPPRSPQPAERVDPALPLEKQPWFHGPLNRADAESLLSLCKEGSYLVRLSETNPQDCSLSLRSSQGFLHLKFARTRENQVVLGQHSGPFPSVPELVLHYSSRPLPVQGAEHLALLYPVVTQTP
B6: ALK tyrosine kinase receptor (Homo sapiens), Q9UM73 (parent)
chain: B1 chain
partner: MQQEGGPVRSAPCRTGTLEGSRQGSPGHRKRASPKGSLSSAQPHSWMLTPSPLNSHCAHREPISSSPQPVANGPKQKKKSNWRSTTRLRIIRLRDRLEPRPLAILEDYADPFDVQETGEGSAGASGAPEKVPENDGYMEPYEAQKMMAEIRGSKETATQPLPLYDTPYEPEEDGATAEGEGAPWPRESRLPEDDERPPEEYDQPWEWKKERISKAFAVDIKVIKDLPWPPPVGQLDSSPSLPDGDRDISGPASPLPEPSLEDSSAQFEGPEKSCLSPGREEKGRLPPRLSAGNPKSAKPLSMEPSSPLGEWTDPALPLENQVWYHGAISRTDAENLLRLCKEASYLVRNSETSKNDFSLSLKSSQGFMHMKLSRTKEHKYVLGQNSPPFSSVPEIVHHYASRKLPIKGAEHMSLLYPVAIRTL
B7: ALK tyrosine kinase receptor (Homo sapiens), Q9UM73 (parent)
chain: B1 chain
partner: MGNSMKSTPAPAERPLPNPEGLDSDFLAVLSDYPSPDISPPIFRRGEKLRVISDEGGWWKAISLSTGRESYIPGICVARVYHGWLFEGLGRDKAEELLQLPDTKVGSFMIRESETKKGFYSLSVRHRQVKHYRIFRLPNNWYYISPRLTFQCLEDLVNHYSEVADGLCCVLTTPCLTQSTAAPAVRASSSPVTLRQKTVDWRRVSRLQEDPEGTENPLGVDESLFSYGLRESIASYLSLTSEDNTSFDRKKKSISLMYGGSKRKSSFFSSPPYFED
B8: ALK tyrosine kinase receptor (Homo sapiens), Q9UM73 (parent)
chain: B1 chain
partner: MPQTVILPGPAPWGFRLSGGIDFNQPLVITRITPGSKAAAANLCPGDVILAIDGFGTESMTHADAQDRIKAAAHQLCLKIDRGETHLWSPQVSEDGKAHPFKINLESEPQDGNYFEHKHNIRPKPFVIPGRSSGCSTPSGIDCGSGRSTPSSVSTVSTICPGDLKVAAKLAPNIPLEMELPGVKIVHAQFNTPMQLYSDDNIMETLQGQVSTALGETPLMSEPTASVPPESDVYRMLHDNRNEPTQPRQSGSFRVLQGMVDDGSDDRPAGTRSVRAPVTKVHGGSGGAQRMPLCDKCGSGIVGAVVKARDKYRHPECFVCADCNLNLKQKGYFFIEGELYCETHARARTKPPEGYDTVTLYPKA

Variants of: B1
Settings: with grb10_human GRB10, Q13322

Variant	effect of a mutation on the interaction
F1245C	increasing interaction strength
I1250T	decreasing interaction strength
L1196M	increasing interaction strength

Variants of: B2
Settings: with hsh2d_human HSH2D

Variant	effect of a mutation on the interaction
L1196M	increasing interaction strength
F1245C	increasing interaction strength
I1250T	decreasing interaction strength

Variants of: B3
Settings: with lcp2_human LCP2, Q13094

Variant	effect of a mutation on the interaction
L1196M	increasing interaction strength
F1245C	increasing interaction strength
I1250T	decreasing interaction strength

Variants of: B4
Settings: with sh24a_human SH2D4A

Variant	effect of a mutation on the interaction
L1196M	increasing interaction strength
F1245C	increasing interaction strength
I1250T	decreasing interaction strength

Variants of: B5
Settings: with shd_human SHD

Variant	effect of a mutation on the interaction
F1245C	increasing interaction strength
I1250T	decreasing interaction strength
L1196M	increasing interaction strength

Variants of: B6
Settings: with shf_human SHF

Variant	effect of a mutation on the interaction
L1196M	increasing interaction strength
F1245C	increasing interaction strength
I1250T	decreasing interaction strength

Variants of: B7
Settings: with slap1_human SLA

Variant	effect of a mutation on the interaction
L1196M	increasing interaction strength
F1245C	increasing interaction strength
I1250T	decreasing interaction strength

Variants of: B8
Settings: with pdli3_human PDLIM3, Q53GG5

Variant	effect of a mutation on the interaction
L1196M	increasing interaction strength
F1245C	increasing interaction strength
I1250T	decreasing interaction strength
